Measurements: the RNAGym collection of RNA variant scans (doi:10.1073/pnas.2313332121)

B1: TPR t1 (parent)
chain: GACCAAUCUGCCCUCAGAGCUCGAGAACAUCUUCGGAUGCAGAGGAGGCAGGCUUCGGUGGCGCGAUAGCGCCAACGUCCUCAACCUCCAAUGCAUCCCACCACAUGAUGAUGCCUGAAGAGCCUUGGUUUUUUG

Variants of: B1
Test: polymerase ribozyme fitness, log enrichment relative to wild type (log ratio); higher = more active; in vitro selection for triplet polymerase activity
How it was run: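 The heterodimeric triplet polymerase ribozyme's subunits were each mutagenized into PCR-built libraries and transcribed. Every library was selected once, in triplicate, by annealing with a biotinylated primer, the partner subunit and triplets, incubating frozen at −7 °C, gel-excising extended constructs, capturing on streptavidin beads and running RT-PCR. Input and output libraries were Illumina-sequenced, with genotypes kept only at ≥10 input reads and ≥1 read per output. Fitness, from inverse-variance-weighted replicate averages, is the base-2 logarithm of genotype enrichment over wild-type enrichment.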

Row | Variant | polymerase ribozyme fitness (log ratio)
1 | GACCAAUCUGCCCUCAGAGCUCGAGAACAUCUUCGGAUGCAGGCGUGGCAGGCUUCGGUGGCCCGAUAGCGCCAACGUCCUCAACCUCCAAUGCAUCCCACCACAUGAUGAUGCCUGAAAAGCCUUGGUUUUUUG [A43G G44C A46U G63C G120A] | -5.64
2 | GACCAAUCUGCCCUCAGAGCUCGAGAACAUCUUCGGAUGCAGGUGAGGGAGGCUUCGGUGGCGCGAUAGCGCCAACGUCCUCAACCUCCAAUGCAACCCACCACAUGAUGAUGCCUGAAGAGCCUUGGUUUUUUG [A43G G44U C49G U96A] | -2.32
3 | GACCAAUCUGCCCUCAGAGCUCGAGAACAUCUUCGGAUGCAGGGGAGGCACGCUUCGGUGGCGCGAUAGCGUCAACGGACUCAACCUCCAAUGCAUCCCACCACAUGAUGAAGCCUGAAGAGCCUUGGUUUUUUG [A43G G51C C72U U78G C79A U112A] | -5.74
4 | GACCAAUCUGCCCUCAGAGCUCGAGAACAUCUUCGGAUGCAGGGGAGGCAGCAUUCGGUGACGCGAUAGCGCCAACGUCCUCAACCUCCAAUGCACCCCACCACAUGAUGAUGCCUGAAGAGCCUUGGUUUUUUG [A43G G52C C53A G61A U96C] | -2.66
5 | GACCAAUCUGCCCUCAGAGCUCGAGAACAUCUUCGGAUGCAGGGGAGGCAGGCUUCUGUGGCGCGAUAGCGCCAACGUCCUCAACCUACAAUGCAUCCCACCAAAUGAUGAUGCCUGAAUAGCCUUGGUUUUUUG [A43G G57U C88A C104A G120U] | -5.76
6 | GACCAAUCUGCCCUCAGAGCUCGAGAACAUCUUCGGAUGCAGGGGAGGCAGGCUUCGGUUGCGCGAUAGCGCCAACGUCCUCAACCUCCAAUGCAUCCCACCACAUGAUGAUGCCUGAAGAGCCUUGGUUUUUUG [A43G G60U] | -1.12
7 | GACCAAUCUGCCCUCAGAGCUCGAGAACAUCUUCGGAUGCAGGGGAGGCAGGCUUCGGUGACGCGAUAGCGCCAACGCCCUCAACCUCCAAUGCAUCCCACCACAUGAUGAUGCCUUAAGAGCCUUGGUUUUUUG [A43G G61A U78C G117U] | -4.59
8 | GACCAAUCUGCCCUCAGAGCUCGAGAACAUCUUCGGAUGCAGGGGAGGCAGGCUUCGGUGCCGCGAUAGCGCCAACGUCCUCAACCUCCAAUGCAUCCCACCACAUGAUGAUGCCUGAAGAGCCUUGGUUUUUUG [A43G G61C] | -4.3
9 | GACCAAUCUGCCCUCAGAGCUCGAGAACAUCUUCGGAUGCAGGGGAGGCAGGCUUCGGUGUCGCGAUAGCGCCAACGUCCUGAACCUCCAAUGCAUCCCACCACAUGAUGAUGCCUGAAGAGCCUUGGUUUUUUG [A43G G61U C82G] | -2.27
10 | GACCAAUCUGCCCUCAGAGCUCGAGAACAUCUUCGGAUGCAGGGGAGGCAGGCUUCGGUGGCACGAUAGCGCCAACGUCCUCAACCUCCAAUGCAUCCCACCACAUGAUGAUGCCUGAAGGGCCUUGGAUUUUUG [A43G G63A A121G U129A] | -3.06
11 | GACCAAUCUGCCCUCAGAGCUCGAGAACAUCUUCGGAUGCAGGGGAGGCAGGCCUCGGUGGCGCGAUAGCGCCAACGUCCUCAACCUUCAAUGCAUCCCACCACAUGAUGAUGCCUGAAGAGCCUUGGUUUUUUG [A43G U54C C88U] | -1.48
12 | GACCAAUCUGCCCUCAGAGCUCGAGAACAUCUUCGGAUGCAGGGGAGGCAGGCUCCGGUGGUGCGAUAGCGCCAACGUCCUCAACCUCCAAUGCAUCCCACCACAUGAAGAUGCCUGAAGAGCCUUGGUUUUUUC [A43G U55C C62U U109A G135C] | -5.8
13 | GACCAAUCUGCCCUCAGAGCUCGAGAACAUCUUCGGAUGCAGGGGAGGCAGGCUCCGGUGGCGUGAUAGCGGCAACGUCCUCAACCUCCAAUGCAUCCCACCACAUGAUGAUGCCUGAAGAGCCUUGGUUUUUUG [A43G U55C C64U C72G] | -2.14
14 | GACCAAUCUGCCCUCAGAGCUCGAGAACAUCUUCGGAUGCAGGGGAGGCAGGCUUCGGUGGCGCGAUAGCGCCAACGUCCUCAACCGCCAAUGCAUCCCACCACAUGAUGAUGCCUGAAGAGCCUUGGUUUUUUG [A43G U87G] | -0.843
15 | GACCAAUCUGCCCUCAGAGCUCGAGAACAUCUUCGGAUGCAGGGGAGGCAGGCUUCGGUGGCGCGAUAGCGCCAACGUCCUCAACCUCCAAUGCAUCCCACCACAUGAAGAUGCCUGAAGAGCCUUGGUUUUUUG [A43G U109A] | -6.81
16 | GACCAAUCUGCCCUCAGAGCUCGAGAACAUCUUCGGAUGCAGGGGAGGCAGGCUUCGGUGGCGCGAUAGCGCCAACGUCCUCAACCUCCAAUGCAUCCCACCACAUGAUGAUGCCUGAAGAGCCUUGGUUUUAUG [A43G U133A] | -1.57
17 | GACCAAUCUGCCCUCAGAGCUCGAGAACAUCUUCGGAUGCAGUGGGGGCAGGCUUCGGUGGGGCGAUAGCGCCAACGUCCUCAACCUCCAAUGCAUCCCACCACAUGAUGAUGCCUGAAGAGCCUUGGUUUUUUG [A43U A46G C62G] | -4.27
18 | GACCAAUCUGCCCUCAGAGCUCGAGAACAUCUUCGGAUGCAGUGGGGGCAGGCUGCGGUGGCGCGAUAGCGCCAACGUCCUCAACCUCCAAUGCAUCCCACCACAUGAUGAUGCCUGAAGAGCCUUGGUUUUUUG [A43U A46G U55G] | -1.34
19 | GACCAAUCUGCCCUCAGAGCUCGAGAACAUCUUCGGAUGCAGUGGGGGCAGGCUUCGGUGGCGCGAUAGCGCCAACGUCCUCAACCUCCAAUGCAUCCCACCACAAGAUGAUGCCUGAAGAGCCUUGGUUUUUUG [A43U A46G U106A] | -2.63
20 | GACCAAUCUGCCCUCAGAGCUCGAGAACAUCUUCGGAUGCAGUGGAGGCGGGCUUCGGUGGCGCGAUAGCGACAACGUCCUCAACCUCCAAUCCCUCCCACCACAUGAUGAUGCUUGAAGAGCCUUGGUUUUUUG [A43U A50G C72A G93C A95C C115U] | -4.47
21 | GACCAAUCUGCCCUCAGAGCUCGAGAACAUCUUCGGAUGCAGUGGAGGCAGGCUUCGGUGGCGCGAUAGCGCCAACGUCCUCAACCUCCAAUGCAUCCCACCACAUGAUGUUGCCUGAAGAGCCUUGGUUUUUUG [A43U A111U] | -4.27
